The values that follow are results of earlier work, collected in publication PMC5548488.

In general, Kd refers to the equilibrium constant for the complex coming apart.

The series has as its target CAST/ELKS (UniProt Q8K3M6).
Chain of UniProt Q8K3M6 (Q8K3M6 whole entry): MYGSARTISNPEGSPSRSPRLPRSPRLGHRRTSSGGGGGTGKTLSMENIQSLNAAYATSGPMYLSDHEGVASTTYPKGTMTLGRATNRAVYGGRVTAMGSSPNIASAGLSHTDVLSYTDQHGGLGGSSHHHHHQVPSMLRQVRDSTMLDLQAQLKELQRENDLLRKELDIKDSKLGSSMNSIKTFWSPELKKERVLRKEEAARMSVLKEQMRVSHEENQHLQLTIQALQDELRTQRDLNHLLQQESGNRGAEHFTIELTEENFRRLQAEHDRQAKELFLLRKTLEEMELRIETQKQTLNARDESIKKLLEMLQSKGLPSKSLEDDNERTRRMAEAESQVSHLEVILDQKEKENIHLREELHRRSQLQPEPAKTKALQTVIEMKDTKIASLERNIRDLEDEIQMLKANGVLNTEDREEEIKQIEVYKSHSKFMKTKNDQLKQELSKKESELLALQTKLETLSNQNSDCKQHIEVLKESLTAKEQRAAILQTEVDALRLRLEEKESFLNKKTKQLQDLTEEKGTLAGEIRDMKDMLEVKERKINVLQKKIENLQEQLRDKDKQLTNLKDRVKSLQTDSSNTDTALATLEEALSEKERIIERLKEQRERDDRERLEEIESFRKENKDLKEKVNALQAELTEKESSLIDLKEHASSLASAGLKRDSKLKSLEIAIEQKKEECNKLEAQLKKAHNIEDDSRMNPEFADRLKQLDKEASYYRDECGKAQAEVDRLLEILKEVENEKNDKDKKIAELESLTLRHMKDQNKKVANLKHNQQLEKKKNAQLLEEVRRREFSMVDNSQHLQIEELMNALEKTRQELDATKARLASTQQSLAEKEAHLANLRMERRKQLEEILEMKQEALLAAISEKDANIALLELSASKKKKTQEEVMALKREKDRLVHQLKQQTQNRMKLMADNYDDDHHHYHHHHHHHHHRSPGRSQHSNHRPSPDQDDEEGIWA

On to RIM PDZ (from UniProt Q86UR5), for which the Kd was 200 nM.
